Assay [1] addresses T1, extracellular domain of the human PD-1 protein (hPD1ex-H6F) (human, UniProt Q15116 21-170).
T1 construct: Made in CHO cells, molecular weight 20.6 kDa as printed; also called hPDlex-H6F
Nature of the assay: BLI (Octet RED 384), antibody-like molecule on ProA sensors, hPD1ex-H6F analyte 485.4 nM, 1:1 model. Here is the method: (§1) Experiments were carried out using a kinetic buffer solution (hereinafter referred to as 1×KB); volume fraction of added Tween 20 was 0.1%; mass fraction of added BSA (bovine serum albumin) was 0.1%; pH 7.4. Before the measurement, the ProA sensors were regenerated with a solution of 50 mM glycine and hydrochloric acid, pH 1.8 (5 seconds in the regenerating solution, 5 seconds in 1×KB, three repetitions).
(§2) In the case of the hPDlex-H6F and hCSF1R_His antigens, the Protein A (ProA) biosensors (ForteBio) were immersed in a solution with antibody-like molecules at a concentration of 10 µg/ml for 300 seconds to immobilize same. The baseline was recorded in 1×KB for 120 seconds. Sensors loaded with the antibody-like molecule were then immersed into wells containing a solution of the target antigen (analyte) in a kinetic buffer for 300 seconds. Measurements were performed for solutions with hPDlex-H6F analyte at concentrations of 10 µg/ml (485.4 nM), for solutions with hCSF1R_His analyte at concentrations of 10 µg/ml (174.2 nM). Complex dissociation in 1×KB was then detected for 600 seconds.
(§3) To obtain numerical values of kinetic constants (kon is the on/association rate constant, kdis is the dissociation rate constant, KD is the equilibrium dissociation constant or affinity constant), the resulting sensograms were processed according to the 1:1 interaction model using Global Fit (selection of one set of kon, kdis, KD constants to analyze several sensograms of different concentrations) of the ForteBio Octet Data Analysis 9.0 software.
For orientation: In BLI a coated tip is dipped into the sample, and binding shifts an interference pattern.

Assay [2] has as its target T2, biotinylated peptide [NH2]CEPANPSEKNSPSTQYCYSIQS[CH2CH2]biotin comprising a fragment of the human CD20 … (human, [NH2] at the N-terminus; [CH2CH2]biotin at the C-terminus (so in the source)).
T2 construct: Immobilized on streptavidin (SAX) sensors; also called CD20 peptide
T2 peptide: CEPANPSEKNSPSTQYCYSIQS
Description: BLI (Octet RED 384), biotinylated CD20 peptide on SAX sensors, antibody-like molecule as analyte, 1:1 model, global fit. On the procedure: as §1
In the case of biotinylated […], the peptide at a concentration of 2.5 μg/ml was immobilized on the surface of SAX sensors (High Precision Streptavidin (SAX) biosensors, ForteBio) for 300 seconds. The baseline was recorded in a 1×KB solution for 120 seconds. Sensors loaded with peptide were then immersed into wells containing the solution of antibody-like molecule (analyte) in 1×KB for 300 seconds. Measurements were performed for solutions with analyte (antibody-like molecule in case of CD20 peptide) at concentrations […] and 75 µg/ml. Complex dissociation was recorded in 1×KB for 60 seconds.
as §3

In assay [3] the target is T3, extracellular domain of the human CSF1R protein (hCSF1R_His) (human, UniProt P07333 20-512).
T3 construct: range 20-512; Made in CHO cells, molecular weight 57.4 kDa as printed; not shown: C-terminal His-tag and FLAG-tag
T3 sequence (P07333 20-512 limits assumed): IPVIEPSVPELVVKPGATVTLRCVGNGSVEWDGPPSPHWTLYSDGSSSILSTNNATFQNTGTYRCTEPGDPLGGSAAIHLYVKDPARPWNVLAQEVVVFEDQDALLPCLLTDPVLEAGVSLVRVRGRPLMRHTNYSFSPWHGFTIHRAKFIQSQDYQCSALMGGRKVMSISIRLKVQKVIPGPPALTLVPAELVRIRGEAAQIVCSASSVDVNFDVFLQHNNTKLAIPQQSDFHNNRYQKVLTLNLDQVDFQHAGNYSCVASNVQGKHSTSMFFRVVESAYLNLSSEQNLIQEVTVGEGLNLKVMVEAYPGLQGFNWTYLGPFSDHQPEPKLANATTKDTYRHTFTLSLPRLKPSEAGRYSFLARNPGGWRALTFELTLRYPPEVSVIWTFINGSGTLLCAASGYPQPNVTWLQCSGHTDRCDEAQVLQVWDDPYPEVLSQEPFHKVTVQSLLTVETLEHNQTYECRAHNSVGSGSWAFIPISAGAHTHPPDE
Nature of the assay: BLI (Octet RED 384), antibody-like molecule on ProA sensors, hCSF1R_His analyte 174.2 nM, 1:1 model. On the procedure:
as §1, §2, §3

T1 sequence (Q15116 21-170 limits assumed, form in doubt): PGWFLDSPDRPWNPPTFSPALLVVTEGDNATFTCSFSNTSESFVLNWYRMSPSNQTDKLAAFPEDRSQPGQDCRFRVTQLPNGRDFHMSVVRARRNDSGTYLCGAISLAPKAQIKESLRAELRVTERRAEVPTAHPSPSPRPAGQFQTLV

B1: antibody-like molecule 08-002 (binds CD20 and PD1) (bispecific antibody, human IgG1, kappa, L234A L235A)
heavy 1: EVQLVESGGGLVQPGGSLRLSCAASGYTFTSYNMHWVRQAPGKGLEWVGAIYPGNGDTSYNQKFKGRFTISVDKSKNTLYLQMNSLRAEDTAVYYCARVVYYSNSYWYFDVWGQGTLVTVSSASTKGPSVFPLAPSSKSTSGGTAALGCLVKDYFPEPVTVSWNSGALTSGVHTFPAVLQSSGLYSLSSVVTVPSSSLGTQTYICNVNHKPSNTKVDKRVEPKSCDKTHTCPPCPAPEAAGGPSVFLFPPKPKDTLYITREPEVTCVVVDVSHEDPEVKFNWYVDGVEVHNAKTKPREEQYNSTYRVVSVLTVLHQDWLNGKEYKCKVSNKALPAPIEKTISKAKGQPREPQVCTLPPSRDELTKNQVSLSCAVKGFYPSDIAVEWESNGQPENNYKTTPPVLDSDGSFFLVSKLTVDKSRWQQGNVFSCSVMHEALHNHYTQKSLSLSPGK
light 1: DIQMTQSPSSLSASVGDRVTITCRASSSVSYMHWYQQKPGKAPKPLIYAPSNLASGVPSRFSGSGSGTDFTLTISSLQPEDFATYYCQQWSFNPPTFGQGTKVEIKRTVAAPSVFIFPPSDEQLKSGTASVVCLLNNFYPREAKVQWKVDNALQSGNSQESVTEQDSKDSTYSLSSTLTLSKADYEKHKVYACEVTHQGLSSPVTKSFNRGEC
heavy 2: not shown
light 2: QPVLTQPLSVSVALGQTARITCGGNNIGSKNVHWYQQKPGQAPVLVIYRDSNRPSGIPERFSGSNSGNTATLTISRAQAGDEADYYCQVWDSSTAVFGTGTKLTVLQQRQVKPEAWLSKGPSPGPGRLQLVCHVSGFYPKPVWVMWMRGEQEQQGTQLGDILPNADWTWYLRATLDVADGEAAGLSCRVKHSSLEGQDIILYWRGSC
notes: Four distinct chains: Ocrelizumab Fab arm (hole) and Prolgolimab Fab-like arm with b2m/CD1b alpha3 dimerization unit (knob)
By Kd is commonly meant the constant that tells how readily two partners part at equilibrium. A higher Kd goes with a looser complex. Broadly, the koff is the first-order rate constant of dissociation. Higher therefore signals fast dissociation. For orientation: kon means a measure of how fast the partners come together. High values mean faster complex formation, low ones slower complex formation. As to B1, in assay [1], the Kd is 16.9 nM, the koff turned out to be 0.000658 s⁻¹ and the kon was determined as 39000 M⁻¹ s⁻¹. In assay [2], this molecule returned a Kd of 845 nM, a koff of 0.0986 s⁻¹ and an on-rate constant (kon) of 117000 M⁻¹ s⁻¹.

B2: antibody-like molecule 08-004 (binds CSF1R and PD1) (bispecific antibody, human IgG1, kappa, L234A L235A)
heavy 1: QVQLVESGGGLVRPGGSLRLSCAASEFTFDDYAMSWVRQAPGKGLEWVSAISWNGGSTNYADSVKGRFTISRDNAKNSLYLQMNSLRAEDTALYYCASTVEVAHRRLYKYLEVWGQGTLVTVSSASTKGPSVFPLAPSSKSTSGGTAALGCLVKDYFPEPVTVSWNSGALTSGVHTFPAVLQSSGLYSLSSVVTVPSSSLGTQTYICNVNHKPSNTKVDKRVEPKSCDKTHTCPPCPAPEAAGGPSVFLFPPKPKDTLYITREPEVTCVVVDVSHEDPEVKFNWYVDGVEVHNAKTKPREEQYNSTYRVVSVLTVLHQDWLNGKEYKCKVSNKALPAPIEKTISKAKGQPREPQVCTLPPSRDELTKNQVSLSCAVKGFYPSDIAVEWESNGQPENNYKTTPPVLDSDGSFFLVSKLTVDKSRWQQGNVFSCSVMHEALHNHYTQKSLSLSPGK
light 1: QAGLTQPPSVSVAPGQTARITCGGNNIGSKSVHWYQQKPGQAPVLVVYGDSDRPSGIPERFSGSNSGNTATLTISRVEAGDEADYYCQVWDISSDHVVFGGGTQLTVLRTVAAPSVFIFPPSDEQLKSGTASVVCLLNNFYPREAKVQWKVDNALQSGNSQESVTEQDSKDSTYSLSSTLTLSKADYEKHKVYACEVTHQGLSSPVTKSFNRGEC
heavy 2: not shown
light 2: QPVLTQPLSVSVALGQTARITCGGNNIGSKNVHWYQQKPGQAPVLVIYRDSNRPSGIPERFSGSNSGNTATLTISRAQAGDEADYYCQVWDSSTAVFGTGTKLTVLQQRQVKPEAWLSKGPSPGPGRLQLVCHVSGFYPKPVWVMWMRGEQEQQGTQLGDILPNADWTWYLRATLDVADGEAAGLSCRVKHSSLEGQDIILYWRGSC
notes: Four distinct chains: anti-CSF1R Fab arm (hole) and Prolgolimab Fab-like arm with b2m/CD1b alpha3 dimerization unit (knob)
In the case of B2, in assay [3], the Kd came to 2.23 nM, the koff stood at 0.000443 s⁻¹ and the kon is 199000 M⁻¹ s⁻¹. Further, in assay [1], the affinity, expressed as Kd, was 13.7 nM; the koff was found to be 0.000568 s⁻¹; the kon stood at 41400 M⁻¹ s⁻¹.

B3: antibody-like molecule 08-001 (binds PD1 and CD20) (bispecific antibody, human IgG1, kappa, L234A L235A)
heavy 1: QVQLVQSGGGLVQPGGSLRLSCAASGFTFSSYWMYWVRQVPGKGLEWVSAIDTGGGRTYYADSVKGRFAISRVNAKNTMYLQMNSLRAEDTAVYYCARDEGGGTGWGVLKDWPYGLDAWGQGTLVTVSSASTKGPSVFPLAPSSKSTSGGTAALGCLVKDYFPEPVTVSWNSGALTSGVHTFPAVLQSSGLYSLSSVVTVPSSSLGTQTYICNVNHKPSNTKVDKRVEPKSCDKTHTCPPCPAPEAAGGPSVFLFPPKPKDTLYITREPEVTCVVVDVSHEDPEVKFNWYVDGVEVHNAKTKPREEQYNSTYRVVSVLTVLHQDWLNGKEYKCKVSNKALPAPIEKTISKAKGQPREPQVCTLPPSRDELTKNQVSLSCAVKGFYPSDIAVEWESNGQPENNYKTTPPVLDSDGSFFLVSKLTVDKSRWQQGNVFSCSVMHEALHNHYTQKSLSLSPGK
light 1: QPVLTQPLSVSVALGQTARITCGGNNIGSKNVHWYQQKPGQAPVLVIYRDSNRPSGIPERFSGSNSGNTATLTISRAQAGDEADYYCQVWDSSTAVFGTGTKLTVLQRTVAAPSVFIFPPSDEQLKSGTASVVCLLNNFYPREAKVQWKVDNALQSGNSQESVTEQDSKDSTYSLSSTLTLSKADYEKHKVYACEVTHQGLSSPVTKSFNRGEC
heavy 2: not shown
light 2: DIQMTQSPSSLSASVGDRVTITCRASSSVSYMHWYQQKPGKAPKPLIYAPSNLASGVPSRFSGSGSGTDFTLTISSLQPEDFATYYCQQWSFNPPTFGQGTKVEIKQRQVKPEAWLSKGPSPGPGRLQLVCHVSGFYPKPVWVMWMRGEQEQQGTQLGDILPNADWTWYLRATLDVADGEAAGLSCRVKHSSLEGQDIILYWRGSC
As to B3, in assay [1], the Kd turned out to be 15.9 nM, the koff is 0.000601 s⁻¹ and the on-rate constant (kon) is 37800 M⁻¹ s⁻¹. In assay [2], this molecule registered a Kd of 848 nM, a koff of 0.139 s⁻¹ and a kon of 164000 M⁻¹ s⁻¹.

B4: antibody-like molecule 08-003 (binds PD1 and CSF1R) (bispecific antibody, human IgG1, kappa, L234A L235A)
heavy 1: QVQLVQSGGGLVQPGGSLRLSCAASGFTFSSYWMYWVRQVPGKGLEWVSAIDTGGGRTYYADSVKGRFAISRVNAKNTMYLQMNSLRAEDTAVYYCARDEGGGTGWGVLKDWPYGLDAWGQGTLVTVSSASTKGPSVFPLAPSSKSTSGGTAALGCLVKDYFPEPVTVSWNSGALTSGVHTFPAVLQSSGLYSLSSVVTVPSSSLGTQTYICNVNHKPSNTKVDKRVEPKSCDKTHTCPPCPAPEAAGGPSVFLFPPKPKDTLYITREPEVTCVVVDVSHEDPEVKFNWYVDGVEVHNAKTKPREEQYNSTYRVVSVLTVLHQDWLNGKEYKCKVSNKALPAPIEKTISKAKGQPREPQVCTLPPSRDELTKNQVSLSCAVKGFYPSDIAVEWESNGQPENNYKTTPPVLDSDGSFFLVSKLTVDKSRWQQGNVFSCSVMHEALHNHYTQKSLSLSPGK
light 1: QPVLTQPLSVSVALGQTARITCGGNNIGSKNVHWYQQKPGQAPVLVIYRDSNRPSGIPERFSGSNSGNTATLTISRAQAGDEADYYCQVWDSSTAVFGTGTKLTVLQRTVAAPSVFIFPPSDEQLKSGTASVVCLLNNFYPREAKVQWKVDNALQSGNSQESVTEQDSKDSTYSLSSTLTLSKADYEKHKVYACEVTHQGLSSPVTKSFNRGEC
heavy 2: not shown
light 2: QAGLTQPPSVSVAPGQTARITCGGNNIGSKSVHWYQQKPGQAPVLVVYGDSDRPSGIPERFSGSNSGNTATLTISRVEAGDEADYYCQVWDISSDHVVFGGGTQLTVLQRQVKPEAWLSKGPSPGPGRLQLVCHVSGFYPKPVWVMWMRGEQEQQGTQLGDILPNADWTWYLRATLDVADGEAAGLSCRVKHSSLEGQDIILYWRGSC
notes: Four distinct chains: Prolgolimab Fab arm (hole) and anti-CSF1R Fab-like arm with b2m/CD1b alpha3 dimerization unit (knob)
In assay [3], B4 returned a Kd of 1.44 nM, a koff of 0.000238 s⁻¹ and a kon of 165000 M⁻¹ s⁻¹. Further, in assay [1], binding was characterised by a dissociation constant (Kd) of 12.4 nM, the dissociation rate constant (koff) was found to be 0.000487 s⁻¹ and the kon was found to be 39200 M⁻¹ s⁻¹.

Source of the values: patent US20260242492A1 (JOINT STOCK COMPANY BIOCAD, published 2026).
